Publication PMC10172501, “Heparanase-2 protein and peptides have a protective effect on experimental glomerulonephritis and diabetic nephropathy” (Frontiers in Pharmacology, 2023)
“Also recorded” adds a separate entry of the source.

How the values were obtained:
[1] = target: T1, recombinant active human HPSE1 (Homo sapiens, UniProt Q9Y251); test: HPSE1 activity assay (inhibition of HPSE1 activity; commercial kit and in-house HS-coated plate assay); format: biochemical; details: for inhibition of HPSE1 activity, first screening experiment of all 30 HPSE2 peptides: data not shown, recombinant HPSE1
T1 construct: recombinant active human HPSE1; purchased Bio-techne 7570-GH-005
T1 sequence (Q9Y251 158-543 limits assumed): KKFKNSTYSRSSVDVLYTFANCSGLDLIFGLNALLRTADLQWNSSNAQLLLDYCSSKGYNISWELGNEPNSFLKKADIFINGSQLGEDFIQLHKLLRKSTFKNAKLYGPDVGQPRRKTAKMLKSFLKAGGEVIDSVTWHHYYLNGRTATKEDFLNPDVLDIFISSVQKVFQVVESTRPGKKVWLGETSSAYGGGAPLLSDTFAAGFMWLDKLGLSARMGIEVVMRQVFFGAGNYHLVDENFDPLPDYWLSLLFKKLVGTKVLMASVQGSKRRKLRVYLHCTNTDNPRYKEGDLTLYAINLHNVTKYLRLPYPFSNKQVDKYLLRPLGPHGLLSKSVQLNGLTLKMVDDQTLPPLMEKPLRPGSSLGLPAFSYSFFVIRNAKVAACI
T1 sequence (Q9Y251 36-109 limits assumed): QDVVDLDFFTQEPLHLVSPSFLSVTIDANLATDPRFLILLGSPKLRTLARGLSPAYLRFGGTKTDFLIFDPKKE
Protocol: The inhibition of HPSE1 activity by HPSE2 protein and peptides was determined by the commercially available HPSE1 assay kit and an in-house developed HPSE1 activity assay, which was optimized by the use of recombinant active human HPSE1 (Bio-techne, Abingdon, United Kingdom, Cat#7570-GH-005). The in-house developed activity assay was performed as described previously ([Buijsers et al., 2020]). In short, Nunc maxisorp flat bottom 96 plates (Thermo scientific, Breda, Netherlands) were coated with 10 μg/mL heparan sulfate from bovine kidney (HSBK) (Sigma-Aldrich, Zwijndrecht, Netherlands) in optimized HS coating buffer, overnight in a humidified chamber at RT. Subsequently, plates were blocked for minimal 2 h with 1% bacto-gelatin (Difco laboratories, Detroit, Michigan, United States) in PBS at RT whereupon HPSE1 inhibitors were added to the plate with a standard amount of recombinant HPSE1 in HPSE1 buffer. Remaining HSBK was detected with primary mouse […] IgM HS antibody JM403 (Amsbio, Abingdon, United Kingdom, cat. No. #370730-S, RRID: AB_10890960, 1 μg/mL in PBST) for 1 h at RT. Subsequently, plates were incubated with secondary goat anti-mouse IgM HRP antibody (Southern Biotech, Uden, Netherlands, cat. No. #1020–05, RRID: AB_2794201, dilution 1:10,000 in PBST) for 1 h at RT. Finally, 3,3′,5,5′-tetramethylbenzidine (TMB) substrate (Invitrogen, Breda, Netherlands) was added and reaction was stopped by addition of 2 M sulfuric acid, and absorbance was measured at 450 nm.

HPSE1 = details: ref Simeonovic et al., 2013; cited from earlier work
From the text: Other HPSE1 inhibitors have been tested both in vitro and in vivo for their application in glomerular diseases as well. Administration of HPSE1 substrates, such as soluble HS, heparin, and low-molecular-weight heparins, all comprise the potential to reduce albuminuria. One example of such class of drugs is sulodexide, which is a highly purified mixture that consists for 80% of low-molecular-weight heparin and for 20% of dermatan sulfate ([Poplawska et al., 1997]).

[2] = system: LPS-induced glomerulonephritis in wt C57Bl/6J mice; test: LPS-induced glomerulonephritis mouse model; format: in vivo; details: for cortical IL-6 mRNA expression: Figure 5F, IL-6 not detectable in control mice
Protocol: Experimental LPS-induced glomerulonephritis was induced in eight-to twelve-week-old wt C57Bl/6J mice by an i. p. injection with 80 µg LPS (O111:B4; Sigma-Aldrich Chemie, Zwijndrecht, Netherlands) as described previously ([Garsen et al., 2016a]). The mice were treated with heparanase 2 (HPSE2) protein and an equal mix of HPSE2 peptides (Thermo Fisher Scientific, Breda, Netherlands) 381–410, 391–420, and 401–430, amino acids respectively, via repeated i. v injection with 12 h intervals starting 6 h after LPS injection. Mice were sacrificed 48 h after LPS injection.
(§1) Kidneys were collected and snap frozen in liquid nitrogen and urine was collected after 18 h housing in metabolic cages upon termination. Urinary albumin was measured by radial immunodiffusion (Mancini) as described previously ([Garsen et al., 2016a]). Blood urea nitrogen (BUN) and urinary/plasma creatinine concentrations were determined routinely in our clinical diagnostic facility.
(§2) RNA was isolated from the kidney cortex using RNeasy mini kit (Qiagen) and 1 µg of RNA was reverse transcribed into cDNA using the Transcription First Strand cDNA synthesis kit (Roche, Woerden, Netherlands) according to manufacturer’s instructions. Quantitative PCR was performed with SYBR Green (Roche, Woerden, Netherlands) on a CFX 96 C1000 Thermal Cycler (Bio-rad, Lunteren, Netherlands) to determine expression levels. Data was analysed using glyceraldehyde-3-phosphate dehydrogenase (GAPDH) as housekeeping gene and by making use of the delta-delta CT method.

[3] = system: STZ-induced diabetic nephropathy in wt DBA/2J mice; test: Streptozotocin (STZ)-induced type 1 diabetic nephropathy mouse model; format: in vivo
Protocol: Experimental streptozotocin (STZ)-induced type 1 diabetes was induced in six-to eight-week-old wt DBA/2J mice (Charles River, Germany). Mice were first fasted for 4 h whereafter the mice were injected i. p. with 50 mg/kg STZ (Sigma-Aldrich Chemie, Zwijndrecht, Netherlands) in 250 mM sodium citrate buffer (pH 4.5), whereas controls were injected with sodium citrate buffer alone for 5 consecutive days. Blood glucose levels were measured twice a week using the ACCU-CHEK Aviva Blood Glucose Meter (Roche Diagnostics, Almere, Netherlands) to monitor that blood glucose levels would not raise above 25 mmol/L. Mice were implanted under the skin half an insulin pellet (LinShin Canada, Toronto, Canada) when their blood glucose level did raise above 25 mmol/L. The mice were treated with HPSE2 protein via continuous s. c infusion with an osmotic mini pump 8 weeks after the final injection with STZ for a duration of 4 weeks. Mice were sacrificed 12 weeks after induction of diabetes.
as §1, §2

mice induced with LPS = details: LPS co-injected with protein compared to LPS alone, upon 2 h; ref Kiyan et al., 2019; cited from earlier work
Protocol: Since HPSE1 is also involved in inflammation ([Goodall et al., 2014]; [Lever et al., 2014]), the increased HPSE1 and TNF-α expression might be prevented if HPSE2 is administered concomitant with LPS at induction of experimental glomerulonephritis. This effect has been shown previously by Kiyan et al. in the CLP sepsis mouse model. They reported decreased plasma levels of IL-6 and TNF-α in mice induced with LPS co-injected with full-length HPSE2 protein compared to LPS alone already upon 2 h. Unfortunately, no assessment of cytokine or HPSE1 mRNA expression in the renal cortex or other tissues ...

In the case of “FLWLNTLGMLANQGIDVVIRHSFFDHGYNH [HPSE2 peptide 401–430, HPSE2-derived peptide, AA region 401–430]”, the “inhibition of HPSE1 activity, first screening experiment of all 30 HPSE2 peptides” value (“inhibition of HPSE1 activity” for short) [1] is reported as “showed great promise as inhibitor of HPSE1 activity” and the “inhibition of HPSE1 activity” value ([1]; listed as 401–430) is reported as “most effective”.

With “GVVTTSAGGTNNLSDSYAAGFLWLNTLGML [HPSE2 peptide 381–410, HPSE2-derived peptide, AA region 381–410]” the “inhibition of HPSE1 activity” value [1] was “showed great promise as inhibitor of HPSE1 activity; also recorded: most effective”.

For PI-88, the “HPSE1 inhibition in animal models for glomerular diseases, such as DN” value (HPSE1) is given as “effective HPSE1 inhibitor”.

B1: HPSE2 protein: His-tagged mouse heparanase-2 protein produced by in vitro translation in HeLa lysate; b60 values from Kiyan et al. concern their protein (protein, UniProt B2RY83 1-592, looked up)
chain: MRVLCAFPEAMASSSSRPPSCLALVALFLALLLHLSLSFHAGNRRPLPVDRATGLKEKTLILLDVSTKNPVRTVNENFLSLQLDPSIIHDGWLDFLSSKRLVTLARGLSPAFLRFGGKRTDFLQFQNLRNPAKSRGGPGPDYYLKNYEDDIVRSDVALDKQKGCKIAQHPDVMLELQREKASQMHLVLLKEQYSNTYSNLILTARSLDKLYNFADCSGLHLIFALNALRRNPNNSWNSSSALSLLKYSASKKYNISWELGNEPNNYRSIHGRAVNGSQLGKDYIQLKSLLQPIRVYSRASLYGPNIGRPRKNVIALLDGFMKVAGSTVDAVTWQHCYIDGRVVKVMDFLKTRLLDTLSDQIRKIQKVVNTYTPGKKIWLEGVVTTSAGGTNNLSDSYAAGFLWLNTLGMLANQGIDVVIRHSFFDHGYNHLVDQNFNPLPDYWLSLLYKRLIGPKVLAVHVAGLQRKPRPGRVIRDKLRIYAHCTNHHNHNYVRGSITLFIINLHRSRKKIKLAGTLRDKLVHQYLLQPYGQEGLKSKSVQLNGQPLVMVDDGTLPELKPRPLRAGRTLVIPPVTMGFYVVKNVNALACRYR
modifications: full-length His tag
notes: His-tagged mouse heparanase-2 protein produced by in vitro translation in HeLa lysate; b60 values from Kiyan et al. concern their protein
With B1 the plasma creatinine levels ([2]; 80 µg LPS i.p., repeated i.v. injection at 12 h intervals starting 6 h after LPS, 48 h, n ≥ 4, Figure 5B) was “significantly ameliorated”, the “urinary albumin creatinine ratio” value ([2]; 80 µg LPS i.p., repeated i.v. injection at 12 h intervals starting 6 h after LPS, 48 h, n ≥ 4, Figure 5C) was “significantly ameliorated; also recorded: dose response inhibitory effect” and the “blood urea nitrogen (BUN)” value ([2]; 80 µg LPS i.p., repeated i.v. injection at 12 h intervals starting 6 h after LPS, sacrificed 48 h after LPS, mean ± SEM, n ≥ 4, Figure 5A) was “significantly ameliorated; also recorded: dose response inhibitory effect”. The “cortical HPSE1 mRNA expression” value ([2]; LPS model, 2 days, qPCR, GAPDH housekeeping, Figure 5D) was “unaltered”, the “cortical TNF-α mRNA expression” value ([2]; LPS model, 2 days, qPCR, Figure 5E) was “unaltered” and the “cortical IL-6 mRNA expression” value ([2]; LPS model, 2 days, qPCR) was “decrease”. For the same molecule, the “cortical IL-6 mRNA expression” value ([2]; LPS model, 2 days, qPCR, listed as HPSE2) was “near-significantly decreased”, the “urinary albumin creatinine ratio” value ([3]; STZ 50 mg/kg i.p. 5 days, continuous s.c. infusion by osmotic mini pump from 8 weeks after STZ for 4 weeks, sacrificed at 12 weeks, n ≥ 5, Figure 6C) was “significantly ameliorated” and the “cortical HPSE1 mRNA expression” value ([3]; STZ model, 12 weeks, qPCR, Figure 6D) was “unaltered”. For the same molecule, the “cortical TNF-α mRNA expression” value ([3]; STZ model, 12 weeks, qPCR, Figure 6E) was “unaltered”, the “cortical IL-6 mRNA expression” value ([3]; STZ model, 12 weeks, qPCR, with versus without treatment, Figure 6F) was “did not show a significant difference” and the “dose response inhibition of recombinant human HPSE1” value ([1]; Figure 4, HS from bovine kidney coated plates, remaining HS detected with JM403, absorbance 450 nm) was “dose-dependent inhibition of HPSE1 activity”. For the same molecule, the “plasma levels of IL-6” value (mice induced with LPS) was “decreased” and the “plasma levels of TNF-α” value (mice induced with LPS) was “decreased”.
